Results reported in patent US20190367619A1 (ARGENX, published 2019).
Residue numbers refer to the chain shown, from its start.

T1: human galectin-10-His (human)
T1 construct: Whether the last M of the tag is the start Met of galectin-10 is not clear; also called human Gal10-HIS; humanGal10-His
T1 chain: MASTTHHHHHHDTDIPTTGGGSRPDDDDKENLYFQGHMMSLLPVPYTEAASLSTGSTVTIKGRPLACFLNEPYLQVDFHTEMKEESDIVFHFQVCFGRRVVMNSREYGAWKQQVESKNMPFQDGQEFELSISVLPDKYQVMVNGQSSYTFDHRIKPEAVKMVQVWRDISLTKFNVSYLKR

T2: cynomolgus galectin-10-His, YRT isoform (cynomolgus)
T2 construct: not shown: His tag
T2 chain: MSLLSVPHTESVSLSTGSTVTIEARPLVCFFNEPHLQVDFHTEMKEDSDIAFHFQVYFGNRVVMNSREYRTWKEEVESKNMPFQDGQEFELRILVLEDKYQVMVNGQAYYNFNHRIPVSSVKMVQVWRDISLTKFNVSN

T3: cynomolgus galectin-10-His, WGS isoform (cynomolgus)
T3 construct: not shown: His tag
T3 chain: T2 chain with E23K, A24G, F31L, Y69F, R70K, T71I, R92S

T4: human galectin-10-His (recombinant human galectin-10 with TEV-cleavable N-terminal His-tag) (human)
T4 construct: SEC-MALLS: dimer in solution; also called Gal10-His; humanGal10-His
T4 chain: T1 chain

T5: TEV-cleaved wild-type recombinant human galectin-10 (soluble, in Fab complexes, or as recombinant galectin-10 … (human, UniProt Q05315 1-142))
T5 sequence: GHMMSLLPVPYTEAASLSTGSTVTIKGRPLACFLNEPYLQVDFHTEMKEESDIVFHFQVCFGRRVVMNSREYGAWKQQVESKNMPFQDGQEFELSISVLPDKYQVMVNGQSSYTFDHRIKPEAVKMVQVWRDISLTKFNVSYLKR

B1: VHH clone 13C10 (VHH)
VHH: QLQLVESGGGLVQAGGSLKLSCAASGRTFNPYTMGWFRQAPGKEREFVAVVSSGGGTYYANSVKGRFTISRDNAKATVYLQMNSLKPEDTAVYYCAAGSIFRWSPMSYDYWGQGTQVTVSS
notes: Purified VHH-Myc-His from E. coli; not shown: Myc and His tags of the phagemid vector
B2: VHH clone 14F10 (VHH)
VHH: EVQLVESGGGLVQAGDSLRLSCAASGRTFSGYAVGWFRQAPGKEREFVTIISWNGGTHYADSVKGRFAISRDNAKNTVYLQMNNLKPEDTAVYYCAVSPKYYFSPETYNYWGQGTQVTVSS
notes: as for B1
B3: VHH clone 13E07 (VHH)
VHH: ELQVVESGGGLVQAGDSLRLSCAVSGRTFSSYHMMWFRQAPGKEREFVAAIAWRGGTYCANSVKGRCTISRDNAKDTVYLQMNSLKPEDTAVYFCAASLRYVFDPSAMDYWGKGTLVTVSS
notes: as for B1
B4: VHH clone 13D12 (VHH)
VHH: B3 VHH with E1Q, V4L, V24A, I51L, K75Q, L99R, G112A
notes: as for B1
B5: VHH clone 1D06 (VHH, not shown: large carriers)
VHH: QLQLVESGGGLVQPGGSLRLSCAASENSVSTYAMGWFRQAPGKEREFVAAITRAGGNTYNADSVKGRFTISRDNAENTIYLQMNSLKPEDTAVYSCAAGPRYSTISTMFPYWGQGTQVTVSS
notes: Positive control from the previous human-specific panel; also called 1D6
B6: VHH clone 14E10 (VHH)
VHH: ELQLVESGGGLVQAGGSLRLSCAASEGTFRPYAMGWFRQAPRKEREFVAVISLSGAYTYNVNAVKGRFTISRDNAKNTVYLQMNSLTPEDTAIYYCGASRTYYRTDESTYEYWGQGTQVTVSS
notes: as for B1
B7: VHH clone 13H07 (VHH)
VHH: QLQLVESGGGLVQAGGSLRLSCVASGRTFSTYAMDWFRQAPGKEREFVAAISWHSAIYYADAVKGRFTISRDNGKNTMYLQMNNLKPEDTAVYFCAAALRYRFNPSAMEYWGKGTLVTVSS
notes: as for B1
B8: VHH clone 14E02 (VHH)
VHH: QVQLVESGGGLAQAGGSLRLSCVASGRAAGTYSMAWFRQAPGKEREFVAAITWAGGYTYGADSEKGRFTISRDNAKNTVYLQMNSLKPEDTAVYSCAGGRLFTSQSSAYQYWGQGTQVTVSS
notes: as for B1
B9: 4G05 scFv-human Fc (Fc fusion)
scFv: QLQVVESGGGLVQTGGSLTLSCTTSGFTFSRYWMIWVRQAPGKGLEWVSSIYNDGGNTYYADSVKGRFTISRDNSENTLYLQMNSLKSEDTAVYYCAKLKAAYYGMDYWGKGTLVTVSSGGGGSGGGGSGGGGSSSALTQPSAVSVSLGQTARITCQGANLGRYYGIWYQQKPGQAPVQVIYGDSNRPSGIPERFSGSSSGGTATLTISGAQAEDEADYYCQSYESSTSPVFGGGTHLTVL
notes: about 100 kDa on SDS-PAGE; also called 4G05 ScFv-hFc; not shown: CH2-CH3 constant domains of human IgG1 (vector pUPEX50)
B10: 4B10 scFv-human Fc (Fc fusion)
scFv: QLQLVESGGGLVQPGGSLRLSCAASGFTFSNYWMYWVRQAPGKGLEWVSAIDVGGGTTDYAGSVKGRFTISRDNTKSTVYLQMNTLKPEDTALYYCLRGGSYYGGMDYWGKGTLVTVSSGGGGSGGGGSGGGGSQSALTQPSAVSVSLGQTARITCQGAKLGRYYGIWYQQKPGQAPVQVIYGDSNRPSGIPERFSGSSSGGTATLTISGAQAEDEADYYCQSYESSTSPVFGGGTHLTVL
notes: about 100 kDa on SDS-PAGE; also called 4B10 ScFv-hFc; not shown: CH2-CH3 constant domains of human IgG1 (vector pUPEX50)
B11: 2B11 scFv-human Fc (Fc fusion)
scFv: QVQLQESGPGLVKPSQTLSLTCTVSGGSITTNYYYWSWIRQPPGKGLEWMGAIAYSGSTYYSPSLKSRTSISRDTSKNQFTLQLSSVTPEDTAVYYCARAPYGISREYDYWGQGTQVTVSSGGGGSGGGGSGGGGSHSAVTQPSAVSVSLGQTARITCQGGKFGRYYASWYQQKPGQAPVLVIYKDSERPSGIPERFSGSSSGDTATLSISGAQAEDEADYFCQSGRSSDNAVFGGGTHLTVL
notes: about 100 kDa on SDS-PAGE; also called 2B11 ScFv-hFc; not shown: CH2-CH3 constant domains of human IgG1 (vector pUPEX50)
B12: 2E11 scFv-human Fc (Fc fusion)
scFv: EVQLVESGGGLVQPGGSLRLSCAASGFTFSSYAMSWVRQAPGKGLEWVSPINSGSDSASYVDSVKGRFTISRDNAKNTLYLQMNSLKPEDTAVYYCAKARTSVVAGGMDYWGKGTLVTVSSGGGGSGGGGSGGGGSQSALTQPSAVSVSLGQTARITCQGGKFGSYYVSWYQQKPGQAPVMVIYKDNERPSGIPERFSGSSSGSTSTLTISGAQAEDEGTYYCQSGSSSDNIVFGGGTELTVF
notes: about 100 kDa on SDS-PAGE; also called 2E11 ScFv-hFc; not shown: CH2-CH3 constant domains of human IgG1 (vector pUPEX50)
B13: 4H10 scFv-human Fc (Fc fusion)
scFv: QVQLVESGGGLVQPGGSLRLSCAASGFTFDDYAMSWVRQAPGKGLEWVSAISWNGGSTYYAESMKGRFTISRDNAKNTLYLQMNSLKSEDAAVYYCAKDLSASGSYYHTFGSWGQGTQVTVSSGGGGSGGGGSGGGGSQAGLTQPPSVAGTLGKTVTISCAGTSSDVGYGDYVSWYQHIPGTAPKLLIYKVKTRASGIPDRFSGSKSGNTASLTISGLQSGDESDYYCASYKNGGTAVFGGGTHLTVL
notes: about 100 kDa on SDS-PAGE; also called 4H10 ScFv-hFc; not shown: CH2-CH3 constant domains of human IgG1 (vector pUPEX50)

Target: T1, human galectin-10-His
Assay: ELISA, Gal10-His coated at 1 ug/mL, VHH titrated, anti-Myc-HRP
Method: (§1) The binding capacity of the 15 VHH clones was analysed by ELISA. Briefly, a Maxisorp plate was coated overnight with human or cynomolgus WGS or YRT isoforms galectin-10-His at 1 μg/mL and blocked with PBS 1% casein, before being incubated with a serial dilution of the VHH (from 4 μM, dilution 1/3, 12 points of dilutions). […] Absorbance was measured at 450 nm (reference at 620 nm) with Tecan instrument. Finally, the raw data (OD values) were plotted on GraphPad Prism 7.01. […] As a positive control, clone 1D06 from the previous human specific panel was included.

Binder	Bmax (OD values) [OD]	EC50 [nM]
B1	1	–
B2	0.5	–
B3	1.1	–
B4	0.8	–
B5	1.2	90.7
B6	0.5	–
B7	1.5	180
B8	0.7	–

Target: T2, cynomolgus galectin-10-His, YRT isoform
Assay: as above
Method: as §1

Binder	Bmax (OD values) [OD]	EC50 [nM]	binding result
B1	2.7	186	–
B2	3	3	–
B3	2.4	–	–
B4	2.4	119	–
B5	0	–	no binding (tested: up to 4 uM VHH)
B6	2.7	15.8	–
B7	3.1	1.3	–
B8	2.1	–	–

Target: T3, cynomolgus galectin-10-His, WGS isoform
Assay: as above
Method: as §1

Binder	Bmax (OD values) [OD]	EC50 [nM]	binding result
B1	2.3	–	–
B2	2.6	60.4	–
B3	2.3	371	–
B4	1.3	–	–
B5	0	–	no binding (tested: up to 4 uM VHH)
B6	1.4	–	–
B7	2.7	15.6	–
B8	1.8	–	–

Target: T4, human galectin-10-His (recombinant …)
Assay: SPR Biacore T3000, scFv-hFc captured by anti-human Fc, galectin-10-His as analyte
Method: In order to determine the binding properties (on-rate/off-rate) of the scFv-human Fc panel, their binding capacity to galectin-10 was analyzed on Biacore T3000. For this purpose, a capture approach was set up. A CM5 Chip was coated with polyclonal anti-human Fc at 8000 RU, then a fixed concentration of the scFv-human Fc panel (1.5 μg/mL), diluted in HBS-EP pH7.4, were captured to reach a binding signal around 150 RU. Finally, a serial dilution of galectin-10-His (serial dilution, 1 over 2 from 5 μg/mL, 6 points of dilution) diluted in HBS-EP pH7.4 was injected. Raw data were analyzed via BIA evaluation software with a blank subtraction (4-3). The kd/KD and Rmax of each scFv-human Fc for galectin-10-His was determined using the Fit Kinetics simultaneous ka/kd/Binding with mass transfer/Local Rmax on BIA evaluation software.

Binder	Kd [nM]	koff [s⁻¹]
B9	0.911	0.0437
B10	1.94	0.0128
B11	0.875	0.018
B12	1.16	0.0111
B13	1.55	0.00277

What follows are binders tested against T5, TEV-cleaved wild-type recombinant human … (assay: cell-based or functional assay).

Binder	100% Solubilization of CLC (Conc uM) [µM]
B9	4.36
B10	6.14
B11	5.04
B12	4.36
B13	6

Target: T4, human galectin-10-His (recombinant …)
Assay: ELISA, scFv-hFc on coated galectin-10-His (0.2 ug/mL)
Method: In a similar setup to that used during the initial screening, the relative binding properties of the 12 scFv-human Fc clones were analyzed by ELISA. Briefly, a Maxisorp plate was coated with galectin-10-His at 0.2 μg/mL and blocked with casein, before being incubated with a serial dilution of the scFv-human Fc fusion molecules. After several washing steps, detection of the bound scFv-human Fc was carried out with an anti-human Fc-HRP antibody. Absorbance was measured at 450 nm (reference at 620 nm) with Tecan instrument. Finally, the raw data (OD values) were plotted on GraphPad Prism 7.01. The EC50 value of each compound was calculated with a non-linear regression (log(agonist) vs. response Variable slope (four parameters)).

Binder	Bmax (OD values) [OD]	EC50 [nM]
B9	3.03	0.09
B10	1.28	0.08
B11	2.43	0.08
B12	1.43	0.14
B13	1.3	0.2
